Patent US20250084172A1 (23ANDME, published 2025)
Where a chain is given by its changes, count along the chain named. In names and notes the source's numbering stands. Each block holds one binder with its values, some of them ahead of it.

Experiments:
[1] = target: T1, cell surface ULBP6_01 on COV644 cells (human, UniProt Q5VY80 27-218); assay: flow cytometry; blocking of hNKG2D-mFc binding to COV644 cells, average of 2 replicates
T1 construct: whole, on cells; also called cell surface ULBP6 (COV644)
T1 chain: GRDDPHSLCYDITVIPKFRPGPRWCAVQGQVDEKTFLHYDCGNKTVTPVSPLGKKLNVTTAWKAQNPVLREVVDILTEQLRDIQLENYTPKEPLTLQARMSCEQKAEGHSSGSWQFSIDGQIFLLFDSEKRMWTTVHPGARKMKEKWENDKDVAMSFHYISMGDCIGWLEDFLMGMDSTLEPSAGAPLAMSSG

[2] = target: T1, cell surface ULBP6_01 on COV644 cells; assay: flow cytometry on COV644 cells, anti-hFc-APC detection, average of 2 replicates
[3] = target: T2, human soluble ULBP6 haplotype 02 (hULBP6_02) (human, UniProt Q5VY80 26-218); assay: SPR (BIACORE 8K, 37 C); antibody captured on Protein A, soluble ULBP injected;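 also: ligand injected as threefold dilution series in HBS-P (highest 10 or 50 nM), reference-cell and buffer-subtracted sensorgrams fitted with a 1:1 Langmuir model for on and off rates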
T2 construct: also called sULBP6_02
T2 chain: T1 chain with G1R, R81L, I122T

[4] = target: T3, human soluble ULBP2 (hULBP2) (human, UniProt Q9BZM5 26-216); assay: as above
T3 construct: also called sULBP2
T3 sequence: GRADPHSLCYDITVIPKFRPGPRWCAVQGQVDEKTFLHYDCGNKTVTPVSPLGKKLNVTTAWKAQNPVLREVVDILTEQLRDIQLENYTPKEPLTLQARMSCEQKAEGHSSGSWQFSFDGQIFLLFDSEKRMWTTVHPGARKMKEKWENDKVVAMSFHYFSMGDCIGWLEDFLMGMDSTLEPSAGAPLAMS

[5] = target: T4, cynomolgus soluble ULBP5 (cULBP5) (cynomolgus); assay: as above
T4 construct: also called Cyno-cULBP5
T4 chain: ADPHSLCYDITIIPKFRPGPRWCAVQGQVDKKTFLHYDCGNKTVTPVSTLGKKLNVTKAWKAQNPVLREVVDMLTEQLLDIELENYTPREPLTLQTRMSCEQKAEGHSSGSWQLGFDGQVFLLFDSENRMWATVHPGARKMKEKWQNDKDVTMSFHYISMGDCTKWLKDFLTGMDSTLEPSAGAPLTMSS

[6] = target: T5, cynomolgus soluble ULBP2/6 (cULBP2/6) (cynomolgus, UniProt Q5VY80 28-217 (human entry), limits assumed); assay: as above
T5 construct: also called cyno ULBP6; Cyno-cULBP2/6
T5 chain: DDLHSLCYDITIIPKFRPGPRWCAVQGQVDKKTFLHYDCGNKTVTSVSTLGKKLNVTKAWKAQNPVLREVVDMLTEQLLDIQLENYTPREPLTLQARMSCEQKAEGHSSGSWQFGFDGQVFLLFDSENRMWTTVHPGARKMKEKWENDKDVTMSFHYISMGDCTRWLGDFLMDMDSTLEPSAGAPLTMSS

[7] = target: T6, human soluble ULBP6 haplotype 01 (hULBP6_01) (human, UniProt Q5VY80 27-218, limits assumed); assay: as above
T6 construct: also called sULBP6_01
T6 chain: T1 chain

[8] = target: T7, human ULBP6 displayed on M13 phage (ULBP6-HA-pIII) (human, UniProt Q5VY80 26-218); assay: phage ELISA: plate coated with the antibody, ULBP6 phage titrated in 3-fold steps from 1.0 O.D./mL, HRP anti-M13 detection, O.D. 450
T7 construct: also called ULBP6 phage; not shown: M13 minor coat protein pIII
T7 sequence: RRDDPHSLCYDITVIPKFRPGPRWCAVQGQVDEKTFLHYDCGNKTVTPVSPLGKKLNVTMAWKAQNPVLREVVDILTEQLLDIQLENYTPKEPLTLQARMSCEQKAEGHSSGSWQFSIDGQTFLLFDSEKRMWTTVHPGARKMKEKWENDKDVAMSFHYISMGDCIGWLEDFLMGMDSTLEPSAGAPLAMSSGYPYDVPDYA

[9] = target: T8, cell surface ULBP6_02 on PANC02.13 cells (human, UniProt Q5VY80 26-218); assay: flow cytometry on PANC02.13 cells, anti-hFc-APC detection, average of 2 replicates
T8 construct: whole, on cells; also called cell surface ULBP6 (PANC02.13)
T8 chain: T1 chain with G1R, R81L, I122T

[10] = target: T2, human soluble ULBP6 haplotype 02 …; assay: blocking ELISA; hNKG2D coated, antibody titrated with biotinylated hULBP6_02
[11] = target: T2, human soluble ULBP6 haplotype 02 …; assay: SPR (BIACORE);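 also: soluble human and cynomolgus NKG2D ligands injected as analytes in 3-fold dilution series spanning 0.01 to 50 nM at 37 °C, reference-subtracted sensorgrams fitted to a 1:1 Langmuir model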
[12] = target: T3, human soluble ULBP2 (hULBP2); assay: SPR (BIACORE);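 also: soluble human and cynomolgus NKG2D ligands injected as analytes in 3-fold dilution series spanning 0.01 to 50 nM at 37 °C, reference-subtracted sensorgrams fitted to a 1:1 Langmuir model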
[13] = target: T4, cynomolgus soluble ULBP5 (cULBP5); assay: SPR (BIACORE);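 also: soluble human and cynomolgus NKG2D ligands injected as analytes in 3-fold dilution series spanning 0.01 to 50 nM at 37 °C, reference-subtracted sensorgrams fitted to a 1:1 Langmuir model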
[14] = target: T5, cynomolgus soluble ULBP2/6 (cULBP2/6); assay: SPR (BIACORE);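 also: soluble human and cynomolgus NKG2D ligands injected as analytes in 3-fold dilution series spanning 0.01 to 50 nM at 37 °C, reference-subtracted sensorgrams fitted to a 1:1 Langmuir model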
[15] = target: T6, human soluble ULBP6 haplotype 01 …; assay: SPR (BIACORE)
[16] = target: T9, human soluble ULBP5 (hULBP5) (human, UniProt Q6H3X3 26-218); assay: SPR (BIACORE)
T9 construct: also called sULBP5
T9 sequence: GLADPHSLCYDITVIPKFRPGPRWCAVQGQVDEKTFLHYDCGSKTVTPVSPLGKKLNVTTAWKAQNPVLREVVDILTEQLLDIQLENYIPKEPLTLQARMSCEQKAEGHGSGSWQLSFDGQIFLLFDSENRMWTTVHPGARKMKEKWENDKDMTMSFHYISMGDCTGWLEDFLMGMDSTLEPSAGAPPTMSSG

[17] = target: T6, human soluble ULBP6 haplotype 01 …; assay: blocking ELISA; hNKG2D coated, antibody titrated with biotinylated hULBP6_01
[18] = target: hNKG2D-Fc (human NKG2D 78-216 with C-terminal long huFc-Flag tag) (human); assay: SPR (BIACORE 8K, 37 C); hNKG2D-Fc captured on Protein A, soluble ligand injected
hNKG2D-Fc (human NKG2D 78-216 with C-terminal long huFc-Flag tag) (human), sequence (chain, as listed by the source limits assumed): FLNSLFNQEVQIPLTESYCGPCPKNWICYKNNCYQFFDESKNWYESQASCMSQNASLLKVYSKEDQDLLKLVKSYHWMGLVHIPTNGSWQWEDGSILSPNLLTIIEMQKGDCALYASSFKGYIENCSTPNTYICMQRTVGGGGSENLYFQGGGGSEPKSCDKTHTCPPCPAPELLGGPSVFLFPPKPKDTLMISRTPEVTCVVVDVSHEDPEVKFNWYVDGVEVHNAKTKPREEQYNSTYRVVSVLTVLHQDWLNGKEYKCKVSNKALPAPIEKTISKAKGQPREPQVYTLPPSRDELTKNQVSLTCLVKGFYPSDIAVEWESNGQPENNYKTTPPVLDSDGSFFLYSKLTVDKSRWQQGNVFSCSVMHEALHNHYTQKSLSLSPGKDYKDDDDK

IC50 [1]: 0.2 nM
EC50 [2]: 0.36 nM
Kd [3]: 0.939 nM
koff [3]: 0.00664 s⁻¹
kon [3]: 7.07e+06 M⁻¹ s⁻¹
Kd [4]: 10.7 nM
koff [4]: 0.0386 s⁻¹
kon [4]: 3.62e+06 M⁻¹ s⁻¹
Kd [5]: 1.51 nM
koff [5]: 0.00922 s⁻¹
kon [5]: 6.1e+06 M⁻¹ s⁻¹
Kd [6]: 0.415 nM
koff [6]: 0.0115 s⁻¹
kon [6]: 2.77e+07 M⁻¹ s⁻¹
Kd [7]: 5.24 nM
koff [7]: 0.0246 s⁻¹
kon [7]: 4.7e+06 M⁻¹ s⁻¹
EC50 (read off the curve) [8]: ~0.006 O.D. (phage)
EC50 [9]: 0.44 nM
B3: humanized 6E1 (h6E1), Fc version not stated (antibody, V domains shown)
VH: EVQLVQSGAEVKKPGASVKVSCKASGYTFTNYWMHWMRQAPGQGLEWLGRIHPSDSDTNYNQKFKGRATLTVDKSISTAYMELSRLRSDDTAVYYCAIEGTGKGYFDVWGRGTLVTVSS
VL: DIQMTQSPSSLSASVGDRVTITCKASQDIYSYLSWFQQKPGKSPKTLIYRANRLVDGVPSRFSGSGSGQDFTLTISSLQPEDFATYYCLHYDEFPLTFGGGTKVEIK
notes: Recombinant humanized antibody, hIgG1 backbone with kappa light chain; also called hu6E1; PUR3993

IC50 [1]: 0.11 nM
EC50 [2]: 1.29 nM
Kd [3]: 0.383 nM
koff [3]: 0.000459 s⁻¹
kon [3]: 1.2e+06 M⁻¹ s⁻¹
Kd [4]: 0.662 nM
koff [4]: 0.000542 s⁻¹
kon [4]: 819000 M⁻¹ s⁻¹
Kd [5]: 23.9 nM
koff [5]: 0.00333 s⁻¹
kon [5]: 139000 M⁻¹ s⁻¹
Kd [6]: 11.4 nM
koff [6]: 0.0045 s⁻¹
kon [6]: 396000 M⁻¹ s⁻¹
Kd [7]: 0.331 nM
koff [7]: 0.000492 s⁻¹
kon [7]: 1.48e+06 M⁻¹ s⁻¹
EC50 (read off the curve) [8]: ~0.006 O.D. (phage)
EC50 [9]: 1.28 nM
B5: humanized 8E11 (h8E11), Fc version not stated (antibody, V domains shown)
VH: EVQLVESGGGLVQPGGSLRLSCAASGFTFRTYGMHWVRQAPGKGLEWVAYISSGSGTIDYADTVKGRFTISRDNAKNSLYLQMNSLRAEDTAVYYCTRQTGAMDYWGQGTLVTVSS
VL: EIVLTQSPATLSLSPGERATLSCSASSSVSYMNWYQQKPGQSPRLWIYGISNLASGVPARFSGSGSGTDFTLTISSLEPEDFAVYYCQQRSSHPLTFGGGTKVEIK
notes: Recombinant humanized antibody, hIgG1 backbone with kappa light chain; also called PUR3926

The remaining lines, values behind:

B1: humanized 1D4 (h1D4), Fc version not stated (antibody, V domains shown)
VH: EIQLVQSGSELKKPGASVKVSCKASGYTFTEYPIHWVRQAPGQGFEWMGMIYTDTGEPTHAEEFKGRFVFSLDTSVSTAYLQISSLKAEDTAVYFCVRWYDGSSYIMDYWGQGTTVTVSS
VL: B3 VL with Y30N, F71Y, L73F, F83I, H90Q
notes: Recombinant humanized antibody, hIgG1 backbone with kappa light chain; also called hiD4; hu1D4
IC50 [1]: 0.22 nM
EC50 [2]: 1.4 nM
Kd [3]: 1.31 nM
koff [3]: 0.00215 s⁻¹
kon [3]: 1.64e+06 M⁻¹ s⁻¹
Kd [4]: 0.642 nM
koff [4]: 0.00148 s⁻¹
kon [4]: 2.31e+06 M⁻¹ s⁻¹
Kd [5]: 0.735 nM
koff [5]: 0.00105 s⁻¹
kon [5]: 1.43e+06 M⁻¹ s⁻¹
Kd [6]: 0.151 nM
koff [6]: 0.00133 s⁻¹
kon [6]: 8.84e+06 M⁻¹ s⁻¹
Kd [7]: 0.422 nM
koff [7]: 0.00114 s⁻¹
kon [7]: 2.69e+06 M⁻¹ s⁻¹
EC50 (read off the curve) [8]: ~0.006 O.D. (phage)
EC50 [9]: 0.72 nM

B2: Humanized 1D4 (h1D4) (E-) (antibody, human IgG1, kappa, N297G, V domains shown)
VH: B1 VH
VL: DIQMTQSPSSLSASVGDRVTITCKASQDINSYLSWFQQKPGKSPKTLIYRANRLVDGVPSRFSGSGSGQDYTFTISSLQPEDIATYYCLQYDEFPLTFGGGTKVEIKR
notes: hIgG1 with N297G (effector negative)
IC50 [10]: 0.265 nM
Kd [11]: 1.06 nM
Kd [12]: 0.47 nM
Kd [13]: 0.63 nM
Kd [14]: 0.99 nM
Kd [15]: 0.41 nM
Kd [16]: 8.88 nM
IC50 [17]: 7.7 nM

B4: human soluble MICB (hMICB) (ligand)
chain: AEPHSLRYNLMVLSQDESVQSGFLAEGHLDGQPFLRYDRQKRRAKPQGQWAEDVLGAKTWDTETEDLTENGQDLRRTLTHIKDQKGGLHSLQEIRVCEIHEDSSTRGSRHFYYDGELFLSQNLETQESTVPQSSRAQTLAMNVTNFWKEDAMKTKTHYRAMQADCLQKLQRYLKSGVAIRRTVPPMVNVTCSEVSEGNITVTCRASSFYPRNITLTWRQDGVSLSHNTQQWGDVLPDGNGTYQTWVATRIRQGEEQRFTCYMEHSGNHGTHPVPSGKVLVLQSQRTD
notes: the printed Uniprot number (29983) looks wrong; also called sMICB
Kd [18]: 118 nM

B6: Humanized 6E1 (h6E1) (E-) (antibody, human IgG1, kappa, N297G, V domains shown)
VH: B3 VH
VL: B2 VL with N30Y, Y71F, F73L, I83F, Q90H
notes: as for B2
IC50 [10]: 0.103 nM
Kd [11]: 0.68 nM
Kd [12]: 8.91 nM
Kd [13]: 1.03 nM
Kd [14]: 1.76 nM
Kd [15]: 4.38 nM
Kd [16]: 8.7 nM
IC50 [17]: 10.2 nM
